US20030162228A1 (Chugai, published 2003)
Read-outs that look alike come from different tables or passages of the source. Where no end group is shown, it is not given here.

Legend:
[1] = molecular target: T1, TAK1 expressed from yeast 2-hybrid expression vector pBTMHu11F (Homo sapiens (Human), UniProt O43318 1-606); test: cell-based or functional assay
T1 sequence: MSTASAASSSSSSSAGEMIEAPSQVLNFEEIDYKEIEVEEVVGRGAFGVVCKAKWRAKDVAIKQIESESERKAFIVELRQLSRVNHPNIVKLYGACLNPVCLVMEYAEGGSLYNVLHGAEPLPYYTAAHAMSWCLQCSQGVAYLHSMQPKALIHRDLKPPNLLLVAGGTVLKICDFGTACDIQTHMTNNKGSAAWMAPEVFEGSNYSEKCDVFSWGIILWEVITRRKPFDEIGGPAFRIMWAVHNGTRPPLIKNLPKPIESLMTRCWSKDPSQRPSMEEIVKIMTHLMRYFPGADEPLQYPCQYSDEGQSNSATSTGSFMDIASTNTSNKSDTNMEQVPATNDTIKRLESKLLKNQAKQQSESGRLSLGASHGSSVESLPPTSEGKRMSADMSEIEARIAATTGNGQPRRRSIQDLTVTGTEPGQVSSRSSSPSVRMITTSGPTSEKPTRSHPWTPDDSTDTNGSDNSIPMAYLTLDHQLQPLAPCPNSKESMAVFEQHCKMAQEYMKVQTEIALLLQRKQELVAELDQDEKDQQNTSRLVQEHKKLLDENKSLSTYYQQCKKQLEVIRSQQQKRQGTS

[2] = molecular target: T1, TAK1 expressed from yeast 2-hybrid …; test: cell-based or functional assay; remark: listed apart in the source
[3] = molecular target: T2, recombinant human TAK1-6×His polypeptide (human, UniProt O43318 1-606); test: competition ELISA on plate-immobilised TAK1-6×His; the blocked ligand is MBP-TAB1C-FLAG at a fixed amount
T2 construct: also called human TAK1-6xHis; recombinant TAK1 polypeptide
T2 sequence: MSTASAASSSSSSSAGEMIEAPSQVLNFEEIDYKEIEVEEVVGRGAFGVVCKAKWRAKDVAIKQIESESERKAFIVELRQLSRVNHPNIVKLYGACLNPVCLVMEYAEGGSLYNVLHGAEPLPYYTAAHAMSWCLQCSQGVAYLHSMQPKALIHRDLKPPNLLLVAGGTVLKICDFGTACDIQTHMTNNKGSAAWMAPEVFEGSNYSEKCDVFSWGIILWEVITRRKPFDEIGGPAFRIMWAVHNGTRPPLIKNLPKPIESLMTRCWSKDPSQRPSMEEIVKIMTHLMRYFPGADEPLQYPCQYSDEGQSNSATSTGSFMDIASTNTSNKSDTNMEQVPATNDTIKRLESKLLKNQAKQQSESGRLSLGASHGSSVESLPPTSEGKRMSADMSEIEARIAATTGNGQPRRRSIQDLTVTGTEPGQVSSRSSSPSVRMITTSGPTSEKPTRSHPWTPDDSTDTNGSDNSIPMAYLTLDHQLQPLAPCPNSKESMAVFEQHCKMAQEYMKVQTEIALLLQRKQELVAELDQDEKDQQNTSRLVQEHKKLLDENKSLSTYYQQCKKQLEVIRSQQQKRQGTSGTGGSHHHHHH
Description: In a similar manner to that in the above 5-1 (2), the recombinant human TAK1-6×His polypeptide was immobilized and was blocked.

[4] = molecular target: TAB1 polypeptide of mink pulmonary epithelial cell line Mv1Lu (endogenous) (mink); test: cell-based or functional assay
[5] = molecular target: T3, TAB1 polypeptide of mouse kidney mesangial cell line SV40MES13 (endogenous) (mouse, UniProt Q8CF89 1-502, limits assumed); test: cell-based or functional assay
T3 sequence (looked up): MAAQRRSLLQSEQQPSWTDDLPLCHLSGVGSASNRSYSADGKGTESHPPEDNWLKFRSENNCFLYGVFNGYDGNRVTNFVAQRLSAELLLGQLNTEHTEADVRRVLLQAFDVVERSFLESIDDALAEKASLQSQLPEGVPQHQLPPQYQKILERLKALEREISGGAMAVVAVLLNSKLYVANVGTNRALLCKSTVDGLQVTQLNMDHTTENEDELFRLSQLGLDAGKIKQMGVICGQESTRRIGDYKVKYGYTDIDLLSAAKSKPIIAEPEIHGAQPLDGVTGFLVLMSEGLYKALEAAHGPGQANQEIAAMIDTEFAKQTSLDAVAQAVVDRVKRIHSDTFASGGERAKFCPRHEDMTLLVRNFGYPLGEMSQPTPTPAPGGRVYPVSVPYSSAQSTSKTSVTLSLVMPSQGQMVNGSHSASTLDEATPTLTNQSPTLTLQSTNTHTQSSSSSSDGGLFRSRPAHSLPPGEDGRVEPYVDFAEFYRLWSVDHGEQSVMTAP

[6] = molecular target: T4, TAB1 polypeptide of human fibroblast-derived HT-1080 cells (endogenous) (human, UniProt Q15750 1-504, limits assumed); test: cell-based or functional assay
T4 sequence (looked up): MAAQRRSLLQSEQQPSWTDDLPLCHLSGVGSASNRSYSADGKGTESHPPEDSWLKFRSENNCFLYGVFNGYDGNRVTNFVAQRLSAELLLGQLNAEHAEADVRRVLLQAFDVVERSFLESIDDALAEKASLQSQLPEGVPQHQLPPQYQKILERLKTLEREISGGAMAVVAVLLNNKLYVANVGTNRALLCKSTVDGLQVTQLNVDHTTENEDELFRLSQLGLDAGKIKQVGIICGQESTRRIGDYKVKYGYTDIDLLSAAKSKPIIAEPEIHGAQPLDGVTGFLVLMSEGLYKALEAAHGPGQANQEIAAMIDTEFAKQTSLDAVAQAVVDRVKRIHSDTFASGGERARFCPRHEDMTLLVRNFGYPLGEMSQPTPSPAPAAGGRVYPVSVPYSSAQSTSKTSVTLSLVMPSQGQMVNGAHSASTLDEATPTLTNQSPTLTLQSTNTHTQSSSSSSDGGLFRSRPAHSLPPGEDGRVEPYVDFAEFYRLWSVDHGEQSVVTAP

[7] = molecular target: T1, TAK1 expressed from yeast 2-hybrid …; test: cell-based or functional assay; remark: listed apart in the source

GLFRSRPAHSLPPGEDGRVEPYVDFAEFYRLWSVDHGEQSVVTAP (other, not shown: large carriers, also: fusion with GAL4 transcription activation domain) [TAB1C45, fusion with the GAL4 transcription activated domain (pGAD-TAB1C45)] was tested, and the “ratio of the β-galactosidase activity to that of TAB1C68 (yeast 2-hybrid)” value (“ratio of the β-galactosidase activity” for short) [1] was 1.19 and the “ratio of the β-galactosidase activity” value [2] was 1.31.

B1: recombinant human TAB1-FLAG polypeptide (other)
chain: MAAQRRSLLQSEQQPSWTDDLPLCHLSGVGSASNRSYSADGKGTESHPPEDSWLKFRSENNCFLYGVFNGYDGNRVTNFVAQRLSAELLLGQLNAEHAEADVRRVLLQAFDVVERSFLESIDDALAEKASLQSQLPEGVPQHQLPPQYQKILERLKTLEREISGGAMAVVAVLLNNKLYVANVGTNRALLCKSTVDGLQVTQLNVDHTTENEDELFRLSQLGLDAGKIKQVGIICGQESTRRIGDYKVKYGYTDIDLLSAAKSKPIIAEPEIHGAQPLDGVTGFLVLMSEGLYKALEAAHGPGQANQEIAAMIDTEFAKQTSLDAVAQAVVDRVKRIHSDTFASGGERARFCPRHEDMTLLVRNFGYPLGEMSQPTPSPAPAAGGRVYPVSVPYSSAQSTSKTSVTLSLVMPSQGQMVNGAHSASTLDEATPTLTNQSPTLTLQSTNTHTQSSSSSSDGGLFRSRPAHSLPPGEDGRVEPYVDFAEFYRLWSVDHGEQSVVTAPGTGGSDYKDDDDK
notes: Made in Sf9 cells with baculovirus and purified on anti-FLAG M2 gel
B1 was tested, and the “IC50 (read off the curve)” value [3] was about 1 µg/well.

B2: TAB1C68, fusion with the GAL4 transcription activated domain (pGAD-TAB1) (other, not shown: large carriers)
chain: QSPTLTLQSTNTHTQSSSSSSDGGLFRSRPAHSLPPGEDGRVEPYVDFAEFYRLWSVDHGEQSVVTAP
For B2, the “ratio of the β-galactosidase activity” value [1] was 1 and the “ratio of the β-galactosidase activity” value [2] was 1.

B3: TAK1-DN (expressed from pTAK1DN) (other)
chain: MELRQLSRVNHPNIVKLYGACLNPVCLVMEYAEGGSLYNVLHGAEPLPYYTAAHAMSWCLQCSQGVAYLHSMQPKALIHRDLKPPNLLLVAGGTVLKICDFGTACDIQTHMTNNKGSAAWMAPEVFEGSNYSEKCDVFSWGIILWEVITRRKPFDEIGGPAFRIMWAVHNGTRPPLIKNLPKPIESLMTRCWSKDPSQRPSMEEIVKIMTHLMRYFPGADEPLQYPCQ
B3 was tested, and the “fold increase of PAI-1 in the culture supernatant on TGF-β1 addition, Mv/DN2 cells (control cells about 16-fold)” value [4] was about 4.3 fold, the “fold increase of fibronectin in the culture supernatant on TGF-β addition, MES/DN3 cells (control MES/NEO about 3.3 fold)” value [5] was about 2.4 fold and the “fold increase of fibronectin in the culture supernatant on TGF-β addition, MES/DN6 cells (control MES/NEO about 3.3 fold)” value [5] was about 2.3 fold. The “fold increase of fibronectin in the extracellular matrix extract on TGF-β addition, MES/DN3 cells (control MES/NEO about 3.8 fold)” value [5] was about 2.6 fold, the “fold increase of fibronectin in the extracellular matrix extract on TGF-β addition, MES/DN6 cells (control MES/NEO about 3.8 fold)” value [5] was about 2.1 fold and the “fold increase of type I collagen in the culture supernatant on TGF-β addition, MES/DN3 cells (control MES/NEO about 3.6 fold)” value [5] was about 2 fold. The “fold increase of type I collagen in the culture supernatant on TGF-β addition, MES/DN6 cells (control MES/NEO about 3.6 fold)” value [5] was about 2 fold, the “fold increase of type IV collagen in the culture supernatant on TGF-β addition, MES/DN3 cells (control MES/NEO about 2.0 fold)” value [5] was about 1.5 fold and the “fold increase of type IV collagen in the culture supernatant on TGF-β addition, MES/DN6 cells (control MES/NEO about 2.0 fold)” value [5] was about 1.4 fold. The “fold increase of fibronectin in the culture supernatant on TGF-β addition, HT/DN2 cells (control HT/NEO about 6.1 fold)” value [6] was about 2.6 fold, the “fold increase of fibronectin in the culture supernatant on TGF-β addition, HT/DN14 cells (control HT/NEO about 6.1 fold)” value [6] was about 3 fold and the “fold increase of fibronectin in the extracellular matrix extract on TGF-β addition, HT/DN2 cells (control HT/NEO about 11.4 fold)” value [6] was about 3.5 fold. For the same binder, the “fold increase of fibronectin in the extracellular matrix extract on TGF-β addition, HT/DN14 cells (control HT/NEO about 11.4 fold)” value [6] was about 3.6 fold.

In the case of PYVDFAEFYRLWSVDHGEQSVVTAP (other, not shown: large carriers, also: fusion with GAL4 transcription activation domain) [TAB1C25, fusion with the GAL4 transcription activated domain (pGAD-TAB1C25)], the “β-galactosidase activity of yeast L40 (yeast 2-hybrid), ratio based on TAB1C68” value [7] is reported as 0.28 ratio to TAB1C68.
